Target: the molecule itself
Experiment: gel filtration and sedimentation velocity (self-association)

B1: H10-LOV543m3-WH1 (other)
chain: MGSSHHHHHHHHHHSSGLVPRGSLATTLERIEKNFVITDPRLPDNPIIFASDSFLQLTEYSREEILGRNCRFLQGPETDRATVRKIRDAIDNQTEVTVQLINYTKSGKKFWNLFHLQPMRDQKGDVQYFIGVQLDGTEHVRDAAEREAVMEAKKTAENIDEAAKLIESSHTLTLNEKRLVLCAASLIDSRKPLPKDGYLTIRADTFAEVFGIDVKHAYAALDDAATKLFNRDIRRYVKGKVVERMRWVFHVKYREGQGCVELGFSPTIIPHLTMLHKEFTSYQLK
notes: Chimera of Avena sativa LOV2 (G528A, L531E, I532A) and wild-type RepA-WH1; carries the FMN chromophore; Dimer in solution; also called LOV2m3-WH1; LOV543-WH1m3; not shown: N-terminal His10 tag peptide
binding result: binds

— US20220056084A1 (CONSEJO SUPERIOR DE INVESTIGACIONES CIENTIFICAS CSIC, published 2022)
